± gives the half width of the 95% confidence interval.
Assay: folding stability dG unfold from chymotrypsin proteolysis; higher = more stable
Description: (§1)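 Folding stability of de novo designed mini-proteins (<80 aa, no Cys; designed by TrROS, TrMRF, ProteinMPNN and the joint model) was measured by cDNA display proteolysis with trypsin and chymotrypsin. Each protease was used at 11 concentrations in a threefold dilution series plus a no-protease condition. K50 was inferred by Bayesian fitting of sequencing counts, and dG unfold was derived against a sequence-predicted unfolded-state K50 (Tsuboyama et al. method). Sequences shown include variable-length N-terminal GS-type padding (SAGGSAGG...) inside a display construct carrying a PA tag. Rows were kept only if the AF2 dimer inter-PAE was >15, to exclude likely homo-oligomers.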

Sequence	folding stability dG unfold [kcal/mol]
SAGGSAGGSIEINPNGNFKIRFRGGNRPQTHTIPIKPGETLDTIKDTIRKHMGPNFPEVEIERSAGGSAGGS [r12_300_TrROS]	0.0855 ± 0.11
SAGGSAGGSAGGGMTTTYTTETIEAPDGTVVIKKTTTYDYGNGSLTKPTIYNPDGTPIGSAGGSAGGSAGGS [r10_1056_JUSTAS]	0.452 ± 0.14
SAGGSAGGSEKLEIVKAFVFENEVILIVKKEKEYYVLKLKFKDGKIESLEFIGPVPENDPSLGSAGGSAGGS [r12_154_TrMRF]	4.92 ± 0.16
SAGGSAGGGASTRRTITVPYEDPEEAFEKVKEEVKAETGKPTEVTLTEIDPNNPGVITVEVTVSSAGGSAGG [r6_211_JUSTAS]	0.938 ± 0.019
SAGEVEKITLTIVVEDPNMTLEEILKKALEALGLKEEDVEVKIVSIKEETLPDGRKLTVIEVEITVPKPSAG [r5_528_TrROS_Hall]	3.43 ± 0.26
SAGGSAGGSAGGNIVDRLQERFPNFPPKSVDVKMNPNGNRSVDIKFDGPPEMRDALLELSAGGSAGGSAGGS [r10_1089_TrROS]	0.128 ± 0.059
SAGGSAGGSAGGAEELLENGRLRIEWPNGRTHTIDLDDGKIEPPPGFPPDNIRRVEIVPPSAGGSAGGSAGG [r7_566_TrROS]	0.444 ± 0.24
SAGGSAVKITVEEREIIVPPEEDPLAENNPGIVVKKKTVKYEKEMTPEEKEKFLKEIEEKTGIKIISAGGSA [r15_347_JUSTAS]	-0.162 ± 0.24
SKKFQIYNPDEGQPFQIEVDPEDGKVTVEWPNGEEEEAPVKDIEIDPGHGWIKIKHPGKEVTIRIPPDMFSA [r9_325_TrROS]	0.00862 ± 0.44
SAGGMRFRVRLFRPGRWLPPREVEPGAEAALRELPADVPFVVIEFDDPRGRRRVFFRSPEELRRAVAASAGG [r13_299_TrMRF]	0.379 ± 0.66
SAMKVIVKIKIYDKNGKLVKEIEIPAEILEKDPEKLKELAEKLAEELKKKGYKVEIELVEVVPVEEEEESAG [r14_972_TrROS_Hall]	4.5 ± 0.41
NYRVEIDDMELFPAPPGQEIRIPLKVEDDGQEHELEEIQVNPDDGYITMKVKIEPDGEPKEFTITIPIPPGS [r1_47_TrROS]	0.158 ± 0.52
SAGGSAVTAEWILDHMRDMGMPEEDVKIDDVQLEREPDKVVIRIEITMRHPNDGKQRRMDMEIPLPSAGGSA [r15_863_TrROS]	-0.164 ± 0.34

Assay: folding stability dG unfold (combined trypsin and chymotrypsin); higher = more stable
Description: as §1

Sequence	folding stability dG unfold [kcal/mol]
SAGGSAGGSIEINPNGNFKIRFRGGNRPQTHTIPIKPGETLDTIKDTIRKHMGPNFPEVEIERSAGGSAGGS [r12_300_TrROS]	-0.152 ± 0.13
SAGGSAGGSAGGGMTTTYTTETIEAPDGTVVIKKTTTYDYGNGSLTKPTIYNPDGTPIGSAGGSAGGSAGGS [r10_1056_JUSTAS]	-0.188 ± 0.12
SAGGSAGGSEKLEIVKAFVFENEVILIVKKEKEYYVLKLKFKDGKIESLEFIGPVPENDPSLGSAGGSAGGS [r12_154_TrMRF]	5.27 ± 0.48
SAGGSAGGGASTRRTITVPYEDPEEAFEKVKEEVKAETGKPTEVTLTEIDPNNPGVITVEVTVSSAGGSAGG [r6_211_JUSTAS]	0.351 ± 0.07
SAGGPGVEIVEVDPDGTLRVRAYDPATREPIAEAEIRIGALPVPPPVPGVPVLLADGELREVELPAALSAGG [r13_9_TrMRF]	< -1
SAGGSAGGSAGMEIKYVPEEGLIEVVEKTPKKLPLYSPRYGLEYETKVTTIPPGELDKPLSAGGSAGGSAGG [r11_531_JUSTAS]	< -1
SAGGSGGSTTPTFEEHVITGPLPVEIKVKKTTLNVTGSSAPSTTTTTTFYDPSGKKLSTKTTTTSSSAGGSA [r2_215_JUSTAS]	< -1
SAGGSAGGSAGDIDIKVEYNKENGMYRVRASFPDGKEVPIWMPPGQTPEEAKDQAKELLKSAGGSAGGSAGG [r17_161_TrROS]	< -1
SKVDIDVERDPGNGHYEYTVRNPNNGYDIKVRIADMDPEHGPIQVEIEPLDDGKKVHYPMPWDDIKDLIKSA [r9_1221_TrROS]	< -1
SAGGSAGGSAGGSPQIKVEYERNGGYYPVKISIPNGRKVEIPNMPVENAEKMAKEFLKKSAGGSAGGSAGGS [r4_383_TrROS]	< -1
SAGGSAGSSSVSTVTPVGDYVVVTVNAPEGSVVTITDPATGTTETRAAPAGATFTVPPNASVSVTNSAGGSA [r15_418_JUSTAS]	< -1
SAGGSAGGMPPDTYVTEVVTTTSNVLGGKDIFRTIVKTTKILPVIEHPAGDGFTLVPPDTPGLESAGGSAGG [r6_405_JUSTAS]	< -1
SARYKRNPDGKPRREEPVPPKPPTIEIPIPFNMPPDDPEMMKRFAEMIADMLADEHGLPPNVPIHISMNSAG [r14_453_TrROS]	< -1
SAGGSAGGSAGGKKQTLVIRSDNKPIPIEYDDDNIKISNPNGKKQEIPPEDLPPDGIEPVSAGGSAGGSAGG [r7_748_TrROS]	< -1
SAGGMSPDATITENLVTDSEEEALAKLLADPSVAEVKPLGVKPDKTKEGKPVIIVPVELRIPADGVRLSAGG [r19_221_JUSTAS]	< -1
SAGGSAGGSAGKNGQPEKVEPQPKIKIRVEDNGKEFETPEQAEELKDELAKKGYKIKVERSAGGSAGGSAGG [r17_289_TrROS]	< -1
SAGGSAGGSAGMKVREITGPPDDAKELLDENPDGITSIAIEPHPKNGQYRITFFDQGPPKSAGGSAGGSAGG [r17_79_TrROS]	< -1

Sequence	folding stability dG unfold [kcal/mol]
SAGGLPSPDAVVEEESLELSFESSSEVVVTKKKTTKKVLPNGKVETETEEEEEVVKATKEEIEKLKKESAGG [r13_544_JUSTAS]	< -1
SSFKTKITILEERELEPVPDRNGTPNPVRLVTIAVTNLGPESVSPEVVEKVKKEVEEKFKEEGIPVEIKDES [r1_305_JUSTAS]	< -1
SAGGSITISMPWNDPEKAAKALEEAFGVDVPPKVERDPGNGWYTITLPNLGRKIQIDGNKVKIEPPSAGGSA [r2_205_TrROS]	< -1
SAGGSAGGSAGGSNIPTDETVEKVVKIGPKPVTVTITAEPGKLLAKFPKEKKTVPISSLLSAGGSAGGSAGG [r7_37_JUSTAS]	< -1
SAGGSAGGSAGGALLLFEEGRRLRYETPEEAEELAAAVRAESGRPDLRISLRELSPEELPSAGGSAGGSAGG [r7_839_JUSTAS]	< -1
SAGGSAGGSAGGSGEDDVEVEVVPLPGDLTRTIERFPGLVRTFVYAPDSEVAEEEFELPSAGGSAGGSAGGS [r4_322_JUSTAS]	< -1
SAGGSAGGSAGGMKVIPIYSPGKGSKEEIIELVKKKNPNVKKVEVTYNPEEDVATVTIESAGGSAGGSAGGS [r10_225_JUSTAS]	< -1
SAGGSAMKYTLKDKDGKTITIEVEEHENPDGEPWYEVDIEHPNDGKEKKVYMPPNNPEEFAKKFLKSAGGSA [r15_92_TrROS]	< -1
SAGGSAGGSAVVTLPDGRLLITEKVEEEVVFPDRDRTSKRVTTKTTLIDPATGTVLPASLLSAGGSAGGSAG [r3_394_JUSTAS]	< -1
SAGGSAGGSTIMIPPGMPPEEAKAWARDIAREQGFPPGRDLNVEVEPQPFDGGPWYTIDIEWDSAGGSAGGS [r12_252_TrROS]	< -1
SMYYVATVIRKKKDGGPYLGPEVRIVESPEEAEEIALEPAPERDYVVELKVEEVPLEELENPEKIKELLESA [r9_864_TrMRF]	< -1
SSFKLYKRPDGSPYLTAPVPEKNLKSALDPSTGVPYIATTPGGELGALSLLADSLEELLKLPPLTFTKPGSA [r9_205_JUSTAS]	< -1
SAGGSASPDTRLVRIELKSNVPGTGIEVTETVPLVELEPDEPAEAVAEEVRAAHPVDEVTVTVDPASAGGSA [r15_540_JUSTAS]	< -1
SAGMPELVEFPFPIPPEFPDIPPETLAKLIAEELNEEEFSVEVKSYDPEKPIVTLTVTKDGKPVAEFTDSAG [r5_80_TrMRF]	< -1
SAGSFEYEFENGSSNRVEVDPENKEVKVEYEPKEGKLIAALPEKGVVLVPIKDKKVEEAAKEVIEKLKKSAG [r5_447_TrMRF]	< -1
NWVVWAKLTNPEEGERKTYEVPVPPGEEPTEEEILDQAKDMLGRPKEDLRKNVEIEPYPENGWAEIEIRIRS [r1_285_TrROS]	< -1
SARLFTIRIQGPPEQLKDALQEEFDMEVNIEPEPNGSTTITFELPPNNYDRFEEALEQLPGFPIEIEPVSAG [r14_521_TrROS]	< -1

— the supplement of paper PMC12764529
